The results in this text go back to patent US20140087995A1 (published 2014).

Numbered stars: 1 amine (or outer) side, 2 acyl side, 3 side chain; on linkers, the order of the positions; unused ones are H or OH. Bridge positions count the residues as written; N and C are the ends. Side chains are listed from the residue outwards. Ends that are not written are not given here. * marks the point of attachment. C20 diacid = O=C(O)CCCCCCCCCCCCCCCCCCC(=O)*; γGlu = O=C(O)[C@H](CCC(=O)[*:2])N[*:1]

For assay [1], the target named is T1, rat calcitonin receptor (rat, UniProt P32214 25-516).
T1 construct: whole, on cells; Membranes of transiently transfected BHK tk'ts 13 cells; also called rCTR; rat calcitonin (a) receptor
T1 sequence (looked up): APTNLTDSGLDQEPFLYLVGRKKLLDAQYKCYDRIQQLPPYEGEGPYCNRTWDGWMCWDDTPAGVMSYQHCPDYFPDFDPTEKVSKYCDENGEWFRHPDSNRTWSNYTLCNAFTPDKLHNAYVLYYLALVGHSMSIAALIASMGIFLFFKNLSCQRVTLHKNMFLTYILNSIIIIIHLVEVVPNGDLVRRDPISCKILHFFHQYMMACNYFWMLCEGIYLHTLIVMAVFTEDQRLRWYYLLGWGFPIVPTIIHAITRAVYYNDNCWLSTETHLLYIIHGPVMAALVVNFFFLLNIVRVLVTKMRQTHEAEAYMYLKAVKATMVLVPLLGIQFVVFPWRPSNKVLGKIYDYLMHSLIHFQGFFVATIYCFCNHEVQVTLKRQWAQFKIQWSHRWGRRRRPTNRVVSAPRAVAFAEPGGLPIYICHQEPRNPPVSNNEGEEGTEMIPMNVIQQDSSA
In words: ratio of IC50 on rat calcitonin receptor to IC50 on rat amylin receptor (reference m40).

Assay [2] concerns the target T2, rat amylin receptor (rat calcitonin receptor + rat RAMP 3) (rat, UniProt P32214 25-516; Q9JJ73 23-147).
T2 construct: whole, on cells; Membranes of transiently transfected BHK tk'ts 13 cells; also called rAmylin-R; rat amylin 3(a) receptor
T2 sequence (looked up) 1: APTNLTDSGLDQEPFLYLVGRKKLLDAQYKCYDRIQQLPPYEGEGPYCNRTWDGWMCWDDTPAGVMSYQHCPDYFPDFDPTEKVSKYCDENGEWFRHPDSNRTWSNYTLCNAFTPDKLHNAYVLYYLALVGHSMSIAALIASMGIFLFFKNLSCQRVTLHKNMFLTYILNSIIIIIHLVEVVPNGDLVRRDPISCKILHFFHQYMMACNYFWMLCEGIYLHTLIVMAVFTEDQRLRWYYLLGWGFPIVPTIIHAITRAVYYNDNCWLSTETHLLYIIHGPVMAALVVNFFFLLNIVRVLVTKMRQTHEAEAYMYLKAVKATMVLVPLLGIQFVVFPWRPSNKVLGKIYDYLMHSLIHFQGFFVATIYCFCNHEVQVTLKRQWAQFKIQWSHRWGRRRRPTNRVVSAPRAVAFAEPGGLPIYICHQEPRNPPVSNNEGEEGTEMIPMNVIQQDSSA
T2 sequence (looked up) 2: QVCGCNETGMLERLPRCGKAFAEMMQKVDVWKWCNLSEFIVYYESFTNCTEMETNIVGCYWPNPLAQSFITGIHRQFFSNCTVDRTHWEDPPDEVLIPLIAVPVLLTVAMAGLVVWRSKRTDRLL
In words: SPA competition with 125I-rat amylin on membranes of BHK tk'ts 13 cells with rat calcitonin receptor + rat RAMP3 (Assay VI).

Assay [3] addresses T1, rat calcitonin receptor. As to the kind of experiment: SPA competition with 125I-calcitonin on membranes of BHK tk'ts 13 cells with rat calcitonin receptor (Assay VIII).
The target of assay [4] is T3, human calcitonin receptor (human, UniProt P30988 25-474).
T3 construct: whole, on cells; Membranes of stably transfected cells; also called hCTR; hCT
T3 sequence (looked up): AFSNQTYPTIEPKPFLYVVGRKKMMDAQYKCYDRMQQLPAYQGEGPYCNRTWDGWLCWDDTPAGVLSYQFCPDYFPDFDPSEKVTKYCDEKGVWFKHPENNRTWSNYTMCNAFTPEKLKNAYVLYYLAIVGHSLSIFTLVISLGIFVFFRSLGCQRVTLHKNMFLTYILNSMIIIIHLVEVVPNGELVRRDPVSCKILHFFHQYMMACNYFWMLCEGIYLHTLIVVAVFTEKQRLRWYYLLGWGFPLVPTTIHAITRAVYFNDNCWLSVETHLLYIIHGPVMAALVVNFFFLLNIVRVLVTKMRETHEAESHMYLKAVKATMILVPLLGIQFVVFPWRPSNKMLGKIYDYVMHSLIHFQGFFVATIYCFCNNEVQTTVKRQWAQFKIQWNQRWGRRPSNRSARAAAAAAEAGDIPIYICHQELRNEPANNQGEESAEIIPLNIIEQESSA
As to the kind of experiment: ratio of IC50 on human calcitonin receptor to IC50 on human amylin receptor (reference m42), SPA competition. How it is done: The resulting pellet was resuspended, homogenized and centrifuged (20.000 rpm, 15 min) in a buffer containing 20 mM Na-HEPES and 0.1 mM EDTA (pH 7.4, buffer 2). The resulting pellet was resuspended in buffer 2 and protein concentration was measured (BCA protein Assay, Pierce). The homogenate was kept cold during the whole procedure. The membranes were kept at −80° C. until use. The assay was performed in a 384 well Optiplate (PerkinElmer) in a total volume of 40 ul. Membranes were mixed with SPA beads. Final concentration of membranes 35 ng/μL final and SPA beads was 0.05 mg/well. Test-compounds were dissolved in DMSO and further diluted in assay buffer (50 mM Hepes, pH 7.4, 1 mM CaCl2, 5 mM MgCl₂, 0.1% OA and 0.02% Tween20). […] The final mixture was incubated with shaking at 400 rpm for 120 min at 25° C. prior to centrifugation (1500 rpm, 10 min). Samples were analyzed on TopCounter™ (Packard). The IC₅₀ was calculated using (one site binding competition analysis) GraphPad Prism5 as a measure of receptor affinity.
Membranes were prepared in the following way; the cells were rinsed with PBS and incubated with Versene for approximately 5 min before harvesting. The cells were flushed with PBS and the cell-suspension was centrifuged for 5 min at 1000 rpm. Cells were homogenized (Ultrathurrax) in a buffer containing 20 mM Na-HEPES and 10 mM EDTA (pH 7.4) and centrifuged at 20.000 rpm for 15 min. The resulting pellet was resuspended, homogenized and centrifuged (20.000 rpm, 15 min) in a buffer containing 20 mM Na-HEPES and 0.1 mM EDTA (pH 7.4, buffer 2). The resulting pellet was resuspended in buffer 2 and protein concentration was measured (BCA protein Assay, Pierce). The homogenate was kept cold during the whole procedure. The membranes were kept at −80° C. until use. Assay was performed in a 384 well Optiplate (PerkinElmer) in a total volume of 40 ul. Membranes were mixed with SPA beads.

Assay [5] concerns the target T4, rat amylin receptor (rat calcitonin receptor + rat RAMP 3) (rat, UniProt P32214 25-516; Q9JJ73 23-147).
T4 construct: whole, on cells; also called rAmylin-R; rat amylin 3(a) receptor
T4 sequence (looked up) 1: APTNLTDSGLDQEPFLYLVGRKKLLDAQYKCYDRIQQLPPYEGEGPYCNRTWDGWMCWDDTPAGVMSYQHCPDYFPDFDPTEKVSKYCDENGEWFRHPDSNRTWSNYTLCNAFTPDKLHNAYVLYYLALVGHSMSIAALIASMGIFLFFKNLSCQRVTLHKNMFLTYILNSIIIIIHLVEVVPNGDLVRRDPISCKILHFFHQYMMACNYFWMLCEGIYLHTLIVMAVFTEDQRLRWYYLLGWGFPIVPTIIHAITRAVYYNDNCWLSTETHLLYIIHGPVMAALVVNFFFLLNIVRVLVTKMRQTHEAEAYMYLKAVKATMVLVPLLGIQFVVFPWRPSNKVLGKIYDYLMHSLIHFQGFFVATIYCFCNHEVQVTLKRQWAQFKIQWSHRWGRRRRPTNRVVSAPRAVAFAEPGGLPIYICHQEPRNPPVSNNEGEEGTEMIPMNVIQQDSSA
T4 sequence (looked up) 2: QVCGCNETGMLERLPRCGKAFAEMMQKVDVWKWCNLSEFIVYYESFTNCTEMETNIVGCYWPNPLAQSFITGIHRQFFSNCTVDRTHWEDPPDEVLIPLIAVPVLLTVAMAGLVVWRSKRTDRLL
As to the kind of experiment: SPA competition with 125I-rat amylin, membranes of BHK cells with rat calcitonin receptor + rat RAMP3 (Assay VI).

Assay [6] concerns the target T5, rat calcitonin receptor (rat, UniProt P32214 25-516).
T5 construct: whole, on cells; also called rCTR; rat calcitonin (a) receptor
T5 sequence (looked up): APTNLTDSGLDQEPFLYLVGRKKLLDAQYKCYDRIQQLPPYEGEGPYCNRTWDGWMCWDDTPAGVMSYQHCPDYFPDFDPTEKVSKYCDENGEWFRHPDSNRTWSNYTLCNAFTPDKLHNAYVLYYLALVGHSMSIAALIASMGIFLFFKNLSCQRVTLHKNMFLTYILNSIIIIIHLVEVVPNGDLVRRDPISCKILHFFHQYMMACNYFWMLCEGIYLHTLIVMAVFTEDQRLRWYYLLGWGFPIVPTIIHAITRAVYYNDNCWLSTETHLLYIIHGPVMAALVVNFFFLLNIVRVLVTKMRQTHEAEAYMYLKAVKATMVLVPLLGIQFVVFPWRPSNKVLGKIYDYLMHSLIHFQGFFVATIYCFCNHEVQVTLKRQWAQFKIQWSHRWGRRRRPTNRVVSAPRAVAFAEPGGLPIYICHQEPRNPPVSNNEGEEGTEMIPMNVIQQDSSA
As to the kind of experiment: ratio of binding IC50s: rat calcitonin receptor over rat amylin receptor (reference).

Assay [7] has as its target T6, human calcitonin receptor (human, UniProt P30988 25-474).
T6 construct: whole, on cells; also called hCTR; hCT
T6 sequence (looked up): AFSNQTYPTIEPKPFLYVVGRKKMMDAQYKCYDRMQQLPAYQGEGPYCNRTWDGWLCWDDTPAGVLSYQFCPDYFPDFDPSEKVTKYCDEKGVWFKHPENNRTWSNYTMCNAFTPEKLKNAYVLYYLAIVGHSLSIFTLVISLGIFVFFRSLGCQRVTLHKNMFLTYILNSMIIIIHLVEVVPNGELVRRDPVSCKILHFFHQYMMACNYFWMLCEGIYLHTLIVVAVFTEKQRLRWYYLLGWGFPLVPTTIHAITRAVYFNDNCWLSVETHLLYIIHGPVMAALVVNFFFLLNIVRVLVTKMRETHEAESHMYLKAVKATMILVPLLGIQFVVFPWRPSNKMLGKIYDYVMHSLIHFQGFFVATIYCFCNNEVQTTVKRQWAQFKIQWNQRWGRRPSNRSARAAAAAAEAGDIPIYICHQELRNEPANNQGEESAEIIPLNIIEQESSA
In words: ratio of binding IC50s: human calcitonin receptor over human amylin receptor (reference). In outline: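 IC₅₀ values were derived by one-site competition analysis of SPA counts. Cell membranes (35 ng/μL) with SPA beads were incubated with test compounds for 120 min at 25° C in Hepes buffer, pH 7.4, containing CaCl2, MgCl₂, OA and Tween20.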

Assay [8] addresses T5, rat calcitonin receptor. In words: SPA competition with 125I-calcitonin, membranes of BHK cells with rat calcitonin receptor (Assay VIII).

B1: N^ε1-[(4S)-4-carboxy-4-[[(4S)-4-carboxy-4-(19-carboxynonadecanoylamino)butanoyl]amino]butanoyl]-[Glu14,Arg17,Pro21,Pro27,Pro34,Glu35]-h-amylin (peptide)
peptide: K([γGlu-γGlu-C20 diacid])CNTATCATQRLAEFLRHSSPNFGAIPSSTNVGPETY-NH2
modifications: disulfide 2-7 (inferred)
notes: Synthetic acylated analogue of human amylin
For B1, the “Ratio rCT/rAmylin binding” value with rat calcitonin receptor [1] worked out at 88.5. In addition, the half-inhibitory concentration (IC50) in assay [2] worked out at 0.182 nM; with rat calcitonin receptor [3] it was 16.1 nM. Further, in assay [4], the “Ratio hCT/hAmylin binding” value was found to be 17.6.

B2: N^ε1-[(4S)-4-carboxy-4-(19-carboxynonadecanoylamino)butanoyl]-[His14,Arg17,Pro21,Pro27]-h-amylin (peptide)
peptide: K([γGlu-C20 diacid])CNTATCATQRLAHFLRHSSPNFGAIPSSTNVGSNTY-NH2
modifications: disulfide 2-7; N-terminus assumed
SMILES: CC[C@H](C)[C@H](NC(=O)[C@H](C)NC(=O)CNC(=O)[C@H](Cc1ccccc1)NC(=O)[C@H](CC(N)=O)NC(=O)[C@@H]1CCCN1C(=O)[C@H](CO)NC(=O)[C@H](CO)NC(=O)[C@H](Cc1c[nH]cn1)NC(=O)[C@H](CCCNC(=N)N)NC(=O)[C@H](CC(C)C)NC(=O)[C@H](Cc1ccccc1)NC(=O)[C@H](Cc1c[nH]cn1)NC(=O)[C@H](C)NC(=O)[C@H](CC(C)C)NC(=O)[C@H](CCCNC(=N)N)NC(=O)[C@H](CCC(N)=O)NC(=O)[C@@H](NC(=O)[C@H](C)NC(=O)[C@@H]1CSSC[C@H](NC(=O)[C@@H](N)CCCCNC(=O)CC[C@H](NC(=O)CCCCCCCCCCCCCCCCCCC(=O)O)C(=O)O)C(=O)N[C@@H](CC(N)=O)C(=O)N[C@@H]([C@@H](C)O)C(=O)N[C@@H](C)C(=O)N[C@@H]([C@@H](C)O)C(=O)N1)[C@@H](C)O)C(=O)N1CCC[C@H]1C(=O)N[C@@H](CO)C(=O)N[C@@H](CO)C(=O)N[C@H](C(=O)N[C@@H](CC(N)=O)C(=O)N[C@H](C(=O)NCC(=O)N[C@@H](CO)C(=O)N[C@@H](CC(N)=O)C(=O)N[C@H](C(=O)N[C@@H](Cc1ccc(O)cc1)C(N)=O)[C@@H](C)O)C(C)C)[C@@H](C)O
notes: synthetic analogue of human amylin; also called compound 70
B2: the IC50 is 0.355 nM in assay [5] and 34.2 nM in the assay with rat calcitonin receptor [8]. The “Ratio rCT/rAmylin binding” value with rat calcitonin receptor [6] came to 96.5. Besides, the “Ratio hCT/hAmylin binding” value in assay [7] came out at 60.8.
